Test: ICP-MS quantification of Au and Pt in mice brains after IV cisplatin+insulin-GNPs
Assay type: in vivo, Male BALB/c mice
Conditions: 8 hours post-administration
Description: Male BALB/c mice aged 6-7 weeks were administered intravenously through the tail vein with 200 μl of cisplatin+insulin-GNPs (approximately 0.1 mg of cisplatin according to ICP-MS measurement of Pt concentration) (n=3), or with equivalent dose of free Cisplatin (100 μl, 1 mg/ml) (n=3). Mice were sacrificed 8 hours post-administration. The mice underwent perfusion using 20 ml saline to remove all the particles residing within the blood vessels.
After sacrifice and perfusion, mice brains were extracted and weighted followed by ICP-MS analysis to quantify the amounts of Au and Pt within the brain.

cisplatin+insulin-GNPs: 20 nm GNPs with mPEG-SH 5 kDa, PEG 1 kDa conjugated to cisplatin, PEG 5 kDa conjugated to insulin (60:20:20)
Au and Pt within the brain (ICP-MS) (IV 200 μl, after perfusion): both gold and platin were found within the brains
Amount of Pt within the brain compared to equivalent dose of free cisplatin (IV): significantly higher
